From paper PMC2629585

Columns and labels:
[1] = molecular target: C-reactive protein (CRP), human, purified (Sigma) (human) (UniProt P02741); assay: SPR; BIAcore 2000; POPC on HPA chip, 200 nM CRP injected and captured, then L-rFBG injected at 30 ul/min; normal condition: 50 mM Tris, 145 mM NaCl, 2.5 mM calcium, pH 7.4
[2] = molecular target: C-reactive protein (CRP), human, purified (Sigma) (human) (UniProt P02741); assay: SPR; BIAcore 2000; POPC on HPA chip, 200 nM CRP injected and captured, then L-rFBG injected at 30 ul/min; infection-inflammation condition: 50 mM MES, 145 mM NaCl, 2 mM calcium, pH 6.5

C-reactive protein (CRP), human, purified (Sigma) (human), sequence (P02741 19-224): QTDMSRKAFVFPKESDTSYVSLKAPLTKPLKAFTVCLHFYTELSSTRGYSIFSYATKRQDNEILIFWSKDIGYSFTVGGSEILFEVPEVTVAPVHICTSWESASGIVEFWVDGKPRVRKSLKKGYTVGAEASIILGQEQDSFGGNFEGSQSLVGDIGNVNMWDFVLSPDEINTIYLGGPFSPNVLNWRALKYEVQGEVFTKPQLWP

- Kd [1]: 1.11 µM
- Kd [2]: 0.0126 µM
Substance: recombinant FBG domain of L-ficolin (L-rFBG) (domain or fragment)
